Like-named read-outs stand apart in the source and are kept apart here.
T1: human VEGF (hVEGF) (human, UniProt P15692 181-395)
T1 construct: also called VEGF-A
T1 sequence: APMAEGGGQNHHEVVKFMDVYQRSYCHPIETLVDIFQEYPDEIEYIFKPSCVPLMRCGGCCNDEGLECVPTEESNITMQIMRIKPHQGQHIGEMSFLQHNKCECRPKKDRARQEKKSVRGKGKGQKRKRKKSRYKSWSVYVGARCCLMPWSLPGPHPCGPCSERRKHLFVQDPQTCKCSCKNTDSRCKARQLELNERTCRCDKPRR

T2: VEGF (as used in the HUVEC migration assay) (Homo sapiens (Human), UniProt P15692 181-395)
T2 sequence: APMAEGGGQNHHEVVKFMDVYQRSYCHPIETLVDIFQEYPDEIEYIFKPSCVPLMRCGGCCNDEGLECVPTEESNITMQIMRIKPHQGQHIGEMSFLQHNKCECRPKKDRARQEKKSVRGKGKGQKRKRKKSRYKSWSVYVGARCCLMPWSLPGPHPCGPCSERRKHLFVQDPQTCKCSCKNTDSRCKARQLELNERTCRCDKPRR

B1: G6.31 AAEE (LC-N94A.LC-F83A.HC-A40E.HC-T57E) (Fab, V domains shown)
VH: EVQLVESGGGLVQPGGSLRLSCAASGFTISDYWIHWVRQEPGKGLEWVAGITPAGGYEYYADSVKGRFTISADTSKNTAYLQMNSLRAEDTAVYYCARFVFFLPYAMDYWGQGTLVTVSS
VL: DIQMTQSPSSLSASVGDRVTITCRASQDVSTAVAWYQQKPGKAPKLLIYSASFLYSGVPSRFSGSGSGTDFTLTISSLQPEDAATYYCQQGYGAPFTFGQGTKVEIK
notes: Fab; also called HC-A40E, HC-T57E, LC-F83A, LC-N94A
B2: G6.31 LC-Y36G (Fab, V domains shown)
VH: EVQLVESGGGLVQPGGSLRLSCAASGFTISDYWIHWVRQAPGKGLEWVAGITPAGGYTYYADSVKGRFTISADTSKNTAYLQMNSLRAEDTAVYYCARFVFFLPYAMDYWGQGTLVTVSS
VL: DIQMTQSPSSLSASVGDRVTITCRASQDVSTAVAWGQQKPGKAPKLLIYSASFLYSGVPSRFSGSGSGTDFTLTISSLQPEDFATYYCQQGYGNPFTFGQGTKVEIK
notes: Fab
B3: G6.31 LC-Q89T (Fab, V domains shown)
VH: EVQLVESGGGLVQPGGSLRLSCAASGFTISDYWIHWVRQAPGKGLEWVAGITPAGGYTYYADSVKGRFTISADTSKNTAYLQMNSLRAEDTAVYYCARFVFFLPYAMDYWGQGTLVTVSS
VL: DIQMTQSPSSLSASVGDRVTITCRASQDVSTAVAWYQQKPGKAPKLLIYSASFLYSGVPSRFSGSGSGTDFTLTISSLQPEDFATYYCTQGYGNPFTFGQGTKVEIK
notes: Fab
B4: G6.31 HC-T57E (Fab, name in Kabat numbering, V domains shown)
VH: EVQLVESGGGLVQPGGSLRLSCAASGFTISDYWIHWVRQAPGKGLEWVAGITPAGGYEYYADSVKGRFTISADTSKNTAYLQMNSLRAEDTAVYYCARFVFFLPYAMDYWGQGTLVTVSS
VL: DIQMTQSPSSLSASVGDRVTITCRASQDVSTAVAWYQQKPGKAPKLLIYSASFLYSGVPSRFSGSGSGTDFTLTISSLQPEDFATYYCQQGYGNPFTFGQGTKVEIK
notes: Fab
B5: G6.31 HC-Y58R (Fab, name in Kabat numbering, V domains shown)
VH: EVQLVESGGGLVQPGGSLRLSCAASGFTISDYWIHWVRQAPGKGLEWVAGITPAGGYTRYADSVKGRFTISADTSKNTAYLQMNSLRAEDTAVYYCARFVFFLPYAMDYWGQGTLVTVSS
VL: DIQMTQSPSSLSASVGDRVTITCRASQDVSTAVAWYQQKPGKAPKLLIYSASFLYSGVPSRFSGSGSGTDFTLTISSLQPEDFATYYCQQGYGNPFTFGQGTKVEIK
notes: Fab
B6: G6.31 LC-L73G (Fab, V domains shown)
VH: EVQLVESGGGLVQPGGSLRLSCAASGFTISDYWIHWVRQAPGKGLEWVAGITPAGGYTYYADSVKGRFTISADTSKNTAYLQMNSLRAEDTAVYYCARFVFFLPYAMDYWGQGTLVTVSS
VL: DIQMTQSPSSLSASVGDRVTITCRASQDVSTAVAWYQQKPGKAPKLLIYSASFLYSGVPSRFSGSGSGTDFTGTISSLQPEDFATYYCQQGYGNPFTFGQGTKVEIK
notes: Fab
B7: G6.31 HC-A40E (Fab, name in Kabat numbering, V domains shown)
VH: EVQLVESGGGLVQPGGSLRLSCAASGFTISDYWIHWVRQEPGKGLEWVAGITPAGGYTYYADSVKGRFTISADTSKNTAYLQMNSLRAEDTAVYYCARFVFFLPYAMDYWGQGTLVTVSS
VL: DIQMTQSPSSLSASVGDRVTITCRASQDVSTAVAWYQQKPGKAPKLLIYSASFLYSGVPSRFSGSGSGTDFTLTISSLQPEDFATYYCQQGYGNPFTFGQGTKVEIK
notes: Fab
B8: G6.31 LC-D28R (Fab, V domains shown)
VH: EVQLVESGGGLVQPGGSLRLSCAASGFTISDYWIHWVRQAPGKGLEWVAGITPAGGYTYYADSVKGRFTISADTSKNTAYLQMNSLRAEDTAVYYCARFVFFLPYAMDYWGQGTLVTVSS
VL: DIQMTQSPSSLSASVGDRVTITCRASQRVSTAVAWYQQKPGKAPKLLIYSASFLYSGVPSRFSGSGSGTDFTLTISSLQPEDFATYYCQQGYGNPFTFGQGTKVEIK
notes: Fab
B9: G6.31 HC-Q81S (Fab, name in Kabat numbering, V domains shown)
VH: EVQLVESGGGLVQPGGSLRLSCAASGFTISDYWIHWVRQAPGKGLEWVAGITPAGGYTYYADSVKGRFTISADTSKNTAYLSMNSLRAEDTAVYYCARFVFFLPYAMDYWGQGTLVTVSS
VL: DIQMTQSPSSLSASVGDRVTITCRASQDVSTAVAWYQQKPGKAPKLLIYSASFLYSGVPSRFSGSGSGTDFTLTISSLQPEDFATYYCQQGYGNPFTFGQGTKVEIK
notes: Fab
B10: G6.31 HC-A53R (Fab, name in Kabat numbering, V domains shown)
VH: EVQLVESGGGLVQPGGSLRLSCAASGFTISDYWIHWVRQAPGKGLEWVAGITPRGGYTYYADSVKGRFTISADTSKNTAYLQMNSLRAEDTAVYYCARFVFFLPYAMDYWGQGTLVTVSS
VL: DIQMTQSPSSLSASVGDRVTITCRASQDVSTAVAWYQQKPGKAPKLLIYSASFLYSGVPSRFSGSGSGTDFTLTISSLQPEDFATYYCQQGYGNPFTFGQGTKVEIK
notes: Fab
B11: G6.31 LC-F83A (Fab, V domains shown)
VH: EVQLVESGGGLVQPGGSLRLSCAASGFTISDYWIHWVRQAPGKGLEWVAGITPAGGYTYYADSVKGRFTISADTSKNTAYLQMNSLRAEDTAVYYCARFVFFLPYAMDYWGQGTLVTVSS
VL: DIQMTQSPSSLSASVGDRVTITCRASQDVSTAVAWYQQKPGKAPKLLIYSASFLYSGVPSRFSGSGSGTDFTLTISSLQPEDAATYYCQQGYGNPFTFGQGTKVEIK
notes: Fab
B12: G6.31 HC-N82aR (Fab, name in Kabat numbering, V domains shown)
VH: EVQLVESGGGLVQPGGSLRLSCAASGFTISDYWIHWVRQAPGKGLEWVAGITPAGGYTYYADSVKGRFTISADTSKNTAYLQMRSLRAEDTAVYYCARFVFFLPYAMDYWGQGTLVTVSS
VL: DIQMTQSPSSLSASVGDRVTITCRASQDVSTAVAWYQQKPGKAPKLLIYSASFLYSGVPSRFSGSGSGTDFTLTISSLQPEDFATYYCQQGYGNPFTFGQGTKVEIK
notes: Fab
B13: G6.31 LC-S50M (Fab, V domains shown)
VH: EVQLVESGGGLVQPGGSLRLSCAASGFTISDYWIHWVRQAPGKGLEWVAGITPAGGYTYYADSVKGRFTISADTSKNTAYLQMNSLRAEDTAVYYCARFVFFLPYAMDYWGQGTLVTVSS
VL: DIQMTQSPSSLSASVGDRVTITCRASQDVSTAVAWYQQKPGKAPKLLIYMASFLYSGVPSRFSGSGSGTDFTLTISSLQPEDFATYYCQQGYGNPFTFGQGTKVEIK
notes: Fab

Tests used:
human VEGF (hVEGF) [1] = target: T1, human VEGF (hVEGF); assay: SPR
Text: (§1) To determine the binding affinity of selected Fab variants, SPR measurement with a BIACORE® T200 instrument was used. Briefly, series S sensor chip CM5 was activated with 1-ethyl-3-(3-dimethylaminopropyl) carbodiimide (EDC) and N-hydroxysuccinimide (NHS) reagents according to the supplier's instructions, and human VEGF (hVEGF) was coupled to achieve 50-80 response units (RU), then following by blocking un-reacted groups with 1M ethanolamine.
(§2) Three-fold serial dilutions of Fab in HBS-P buffer (0.01 M HEPES pH 7.4, 0.15 M NaCl, 0.005% surfactant P20) from low (0.02 nM) to high (50 nM) were injected (flow rate: 30 μl/min). The binding responses on hVEGF were corrected by subtracting of RU from a blank flow cell. The sensorgram was recorded and subject to reference and buffer subtraction before evaluating by BIACORE® T200 Evaluation Software (version 2.0). Association rates (kₒₙ) and dissociation rates (koff) were calculated using a simple one-to-one Langmuir binding model. The equilibrium dissociation constant (Kd) was calculated as the ratio koff/kₒₙ.

human VEGF (hVEGF) [2] = target: T1, human VEGF (hVEGF); assay: SPR; remark: listed apart in the source
Text: as §1, §2

[3] = target: T2, VEGF (as used in the HUVEC migration …); assay: cell-based or functional assay
human VEGF (hVEGF) [4] = target: T1, human VEGF (hVEGF); assay: SPR single-cycle;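 on Fold change (relative to G6.31): fab variants injected over hVEGF immobilized on a CM5 chip (Biacore T200), threefold dilution series from 0.02 to 50 nM, kinetics fitted with a 1:1 Langmuir model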
Text: as §1, §2

human VEGF (hVEGF) [5] = target: T1, human VEGF (hVEGF); assay: BIACORE SPR on immobilised hVEGF; label beside the mutation on the structure of the VEGF-bound G6 Fab (PDB 2FJG)
human VEGF (hVEGF) [6] = target: T1, human VEGF (hVEGF); assay: SPR; remark: listed apart in the source
human VEGF (hVEGF) [7] = target: T1, human VEGF (hVEGF); assay: BIACORE SPR on immobilised hVEGF; label beside the mutation on the structure of the VEGF-bound G6 Fab (PDB 2FJG); remark: listed apart in the source
human VEGF (hVEGF) [8] = target: T1, human VEGF (hVEGF); assay: SPR; remark: listed apart in the source
Text: as §1, §2

human VEGF (hVEGF) [9] = target: T1, human VEGF (hVEGF); assay: SPR single-cycle; remark: listed apart in the source;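 on Fold change (relative to G6.31): fab variants injected over hVEGF immobilized on a CM5 chip (Biacore T200), threefold dilution series from 0.02 to 50 nM, kinetics fitted with a 1:1 Langmuir model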
Text: as §1, §2

| Binder | Fold difference (relative to G6.31) (human VEGF (hVEGF) [4]) | Kd (human VEGF (hVEGF) [4]) | koff (human VEGF (hVEGF) [4]) | kon (human VEGF (hVEGF) [4]) | fold change in binding affinity (Kd) compared to G6.31 (human VEGF (hVEGF) [5]) | fold increase in affinity compared to wild-type G6.31 (human VEGF (hVEGF) [6]) | fold change in binding affinity (Kd) compared to G6.31 (human VEGF (hVEGF) [7]) | also measured |
| --- | --- | --- | --- | --- | --- | --- | --- | --- |
| B1 | – | – | – | – | – | – | – | Kd (human VEGF (hVEGF) [1]): 0.584 nM; koff (human VEGF (hVEGF) [1]): 0.000741 s⁻¹; kon (human VEGF (hVEGF) [1]): 1.27e+06 M⁻¹ s⁻¹; Kd (human VEGF (hVEGF) [2]): 0.58 nM; koff (human VEGF (hVEGF) [2]): 0.000741 s⁻¹; kon (human VEGF (hVEGF) [2]): 1.27e+06 M⁻¹ s⁻¹; IC50 relative to G6.31, VEGF-induced HUVEC migration [3]: 0.9 fold |
| B2 | 0.6 fold | 2.47 nM | 0.000558 s⁻¹ | 225000 M⁻¹ s⁻¹ | 0.5 x | – | – | – |
| B3 | 3.7 fold | 0.42 nM | 0.000493 s⁻¹ | 1.17e+06 M⁻¹ s⁻¹ | 4 x | – | – | – |
| B4 | 7.7 fold | 0.2 nM | 0.000402 s⁻¹ | 1.93e+06 M⁻¹ s⁻¹ | – | 8 to 9 fold | 8 x | – |
| B5 | 9.1 fold | 0.17 nM | 0.000255 s⁻¹ | 1.48e+06 M⁻¹ s⁻¹ | – | 8 to 9 fold | 9 x | Fold improved (relative to WT) (human VEGF (hVEGF) [8]): 6.9 fold; Kd (human VEGF (hVEGF) [8]): 0.076 nM; koff (human VEGF (hVEGF) [8]): 0.000184 s⁻¹; kon (human VEGF (hVEGF) [8]): 2.42e+06 M⁻¹ s⁻¹ |
| B6 | 1.4 fold | 1.09 nM | 0.000644 s⁻¹ | 589000 M⁻¹ s⁻¹ | 2 x | ~1.6 fold | – | – |
| B7 | 3.8 fold | 0.41 nM | 0.000466 s⁻¹ | 1.13e+06 M⁻¹ s⁻¹ | – | – | 4 x | Fold change (relative to G6.31) (human VEGF (hVEGF) [9]): 0.6 fold; Kd (human VEGF (hVEGF) [9]): 2.63 nM; koff (human VEGF (hVEGF) [9]): 0.000517 s⁻¹; kon (human VEGF (hVEGF) [9]): 197000 M⁻¹ s⁻¹ |
| B8 | 2.8 fold | 0.56 nM | 0.000655 s⁻¹ | 1.17e+06 M⁻¹ s⁻¹ | 3 x | – | – | – |
| B9 | 3.4 fold | 0.45 nM | 0.000487 s⁻¹ | 1.07e+06 M⁻¹ s⁻¹ | – | – | 3 x | – |
| B10 | 3.7 fold | 0.42 nM | 0.00035 s⁻¹ | 829000 M⁻¹ s⁻¹ | – | – | 4 x | – |
| B11 | 3.1 fold | 0.5 nM | 0.000433 s⁻¹ | 855000 M⁻¹ s⁻¹ | 3 x | 3 fold | – | Fold improved (relative to WT) (human VEGF (hVEGF) [8]): 4 fold; Kd (human VEGF (hVEGF) [8]): 0.132 nM; koff (human VEGF (hVEGF) [8]): 0.000218 s⁻¹; kon (human VEGF (hVEGF) [8]): 1.65e+06 M⁻¹ s⁻¹ |
| B12 | 6.7 fold | 0.23 nM | 0.000322 s⁻¹ | 1.39e+06 M⁻¹ s⁻¹ | – | ~6.6 fold | 7 x | Fold improved (relative to WT) (human VEGF (hVEGF) [8]): 6.8 fold; Kd (human VEGF (hVEGF) [8]): 0.077 nM; koff (human VEGF (hVEGF) [8]): 0.000124 s⁻¹; kon (human VEGF (hVEGF) [8]): 1.62e+06 M⁻¹ s⁻¹ |
| B13 | 1.2 fold | 1.31 nM | 0.000611 s⁻¹ | 467000 M⁻¹ s⁻¹ | 1 x | – | – | – |
